The values below come from US20100330072A1 (published 2010).

B1: 2x mTN8-19-7 peptibody (Fc fusion)
chain: GGGGGAQLADHGQCIRWPWMCPPEGWELEGSGSATGGSGSTASSGSGSATGLADHGQCIRWPWMCPPEGWELE
notes: Fc dimer; also called 2×mTN8-19-7
B2: 2x mTN8-19-21 peptibody (Fc fusion)
chain: GGGGGAQSEYQGLCTRWPWMCPPQGWKLEGSGSATGGSGSTASSGSGSATGSEYQGLCTRWPWMCPPQGWKLE
notes: Fc dimer
B3: 2x mTN8-19-33 peptibody (Fc fusion)
chain: GGGGGAQPESQGHCTRWPWMCPPQGWGLEGSGSATGGSGSTASSGSGSATGPESQGHCTRWPWMCPPQGWGLE
notes: Fc dimer; also called 2×mTN8-19-33

The assay deals with T1, recombinant mature myostatin (human, produced in E. coli) (human, UniProt O14793 267-375).
T1 construct: mature; also called GDF-8
T1 sequence (looked up): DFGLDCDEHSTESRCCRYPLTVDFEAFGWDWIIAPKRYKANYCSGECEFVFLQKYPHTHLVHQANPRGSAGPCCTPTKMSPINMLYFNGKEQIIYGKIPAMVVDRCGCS
Description: KinExA solution equilibrium assay or BIAcore (table does not say which). On the technique in general: In KinExA the mixture passes briefly over coated beads that capture the unbound partner.
B1: the Kd (as a rule, the constant that tells how readily two partners part at equilibrium) stood at 12 pM.
Next, B2: 6 pM.
Next, B3: 3 pM.
